Experimental data taken from the DeepSol protein solubility set.

Assay: soluble on expression in E. coli; label from the status in PepcDB or PDB records

Row | Sequence | soluble on expression in E. coli
1 | MENQTKCNISYRRIRIDKKKPPKTALKIKCLFTFSGFQEMLHVDKVDSLQTEKVNIRASGLVEWSCYTFILRLHYDRGTYASFCVARSDSLGCIDLSRDAPIRGTYTEVDQMGLFISIEPTQSIRPGHFFKTYDPKTYYYTLQLLDDSKKIIDEIHLKKHWKHPLVEQINVEQNGLYGTLFKPPGKGPFPAVIFIPGSNGMLESGYAAVLASEGFLTFTFAYFAYKKDLPKLIPDVDIEFFEKPIEYVQNSPYCSGKIGLVGQSFGGLTANYLSTKYHQVSAVVALNCSAAFCRDNAVMKENGKPMETQILDEGMSDFVNQVLRQKPAFRDLYSNLTPTTSIPWARAPKNTAYRIVQCYDDMLVDAVPSIINICGNLRKTGHHVESELVPGGHFLYFPYFPHHGIIYNAQINMLWGFGGECYQHSKSQETTWKKNVEFFKKHLGDVKRIPEWKRESTVTLPVSTKSSKSLQCKL | not soluble
2 | MENRGILFDKDGTCIRFDTLWQAGLQACFETLSMLAPHHSAEIKKILAIQEQRFLQKHLLDEVLYQELYQELAQFEELVEQGISSRWLEQFFYDYLRKNLKKIEPIGDLKQLFLELKRKNYKIGLATSDTLPATMLIMEYLGLTEMFDFIATGDRYLPKPDADMLQAFCQSCQLKATEVIMVGDSLVDVFMGTCHGKAGIGVLTGNCQSTDFEKFEVAYFRDIHEIPYQELWENTKKKKIYYF | not soluble
3 | MENSIEAYLADSREKVTLGTVVDCFKGKAVSSKVVPGDVGLINLSDMGTLGIQYHQLRTFQMDRRQLLRYLLEDGDVLIASKGTLKKVCVFHKQNRDVVASSNITVLRPQKLLRGYYIKFFLDSPIGQALLDVADHGKDVINLSTKELLDIPIPVIPLVKQDYLINHYLRGLTDYHRKLNRAEQEWEYIQNEIQKGLG | soluble
4 | MEPNNLKEELVSVFEKACSSHKERLDFICSVRESDTFSNVDVPLAPIKTIIEIAKNEENQTEILKLAIENIKTLSTVGSGQYIASHFSTHNEVAIIFCISYFLYHFNFLHDENKKQLLKRAFEAVAEKIADYLNEN | soluble
5 | MEPRTIACPHKGCTKMFRDNSAMRKHLHTHGPRVHVCAECGKAFVESSKLKRHQLVHTGEKPFQCTFEGCGKRFSLDFNLRTHVRIHTGDRPYVCPFDGCNKKFAQSTNLKSHILTHAKAKNNQ | soluble
6 | MEQQIQMDEQENDESQGNDDQQNMSMSSSELHTMQDDHPGILLKTNTRMSITVKKLHVCGEWKWLQGGEDTCGICRMEFESACNMCKFPGDDCPLVLGICRHAFHRHCIDKWIAAPTNQPRAQCPLCRQDWTIVE | not soluble
7 | MEQQLNLGHLLTAARLLDIGALDISSLDLGALTSTSSSPGSSSPAMFDLSNESELRSLFCGKLKVDKKQSSCASNASTSSQPYCSSPPARKSSKHSRTAHNELEKTRRANLRGCLETLKMLVPCVSDATRNTTLALLTRARDHIIELQDSNAAQMKKLNDLRDEQDELVAELAQLQADEEVAQATSQACQTLSQSRPESRASSFTSTSSRDSPCYLEYSPSSKPMDSHKPTIIDLYAEGLIPRGPITFPRPLVYPHNVFDLMNLPPTPFDVSQFLPINLQV | not soluble
8 | MEQRDMKTVFLLDRSAKFVENCNETFDVTIREGPKQKKLQFEKTIWTWCLEGIFEMHRILSDVYPRGTLQLRFALADFMGKMLDTQWTDGFLTREELGELIETVSRPSEANTDITPIGGLTMAIEALAVQSPEQRNYNYDVRYSANKRTAQNSEVIRVTRELRGLPPLPTVQNAGNLIMYTRLNTQEEMEQLQTEIVELVVSRNKIADAPSNKTFCPITSLRLFIVNYYATGDECTVKTHSLQAHPDLPLLKIWVISRKAADMCDAIHSLLVDAFDLGSTTVTKIPMKEDNRGSSNYDVELFHSGKVHAMLKENNLIDTVSKKGDSDKGVTYDTMRLTWTTAPKTKWSLFPYHGAAVPCTTAQAYSRPSACLTQFVRDGRCVMLDSEKTTELGMNMHEKLVSHLLIANRGRIFIQEIDFMQKKADRIAGKLKRPRVLHAPEDPINMNQLRHTYKQLELRFVAKNRMDDNLTEKETEKWTGLKNSDLKKRFQRISKNIPCFAADTFIFNEKVTPKLEPLISLITKTTLSENDVDKCKQCIVTLYQMKNERQYVISPESDIKISSVRNLKDPDEQLRVTFVELAKHIMKYVTFSEKHKEIYKTYMTTLNVDKLLEVDLDDDEAVDKMFVKFSFFGKSDTASKTDEDEDSSDDEDEEILKSPALKKLFGYVDARDERKYEELYGQGFKKKKPEVEEKPIVMAKEIKVDIFSNMCDMLEVKESKIRREFVGRETHGNIAPLYPQLAEKLERPASPAATERGTERVRNTAERGGSGTPPPGGRRNFQ | not soluble
9 | MERDGYKCRICDHSYLDIHYKDGNVENKNLENLIVLCKQCHYRLHQKERMESIKQAFEDFLDELSKNPIEVVIDFSFKKIVESNEEKIRREIIQGFTRPFGVISRIQEKVRDAIMKEIEEEIEKEQASTPEHLRKVVLERNNYRCSVCGYGYLEVHHVDGNILNNTLDNLVTLCRRCHRKVHYHPSFHTTPEDMDKCIRSFHHEFYSTIYEIMKNKKGNIRISIKFDQLGVKGVKISRAQFKRINGLFNHEVINDGIFKQWEREIKNYLSRLEWEQQKEIYRNVYFLLECILPKDSFEAFVNLARKGKFDRRTLREAKKVLKNSIKLEHHHHHH | soluble
10 | MERGRSDMEMINNMANCLILLSKAHQNDTKSRVFACKTCNKEFPSFQALGGHRASHRRSAALEGHAPPSPKRVKPVKHECPICGAEFAVGQALGGHMRKHRGGSGGGGGRSLAPATAPVTMKKSGGGNGKRVLCLDLNLTPLENEDLKLELGRFIF | soluble
11 | MERILEKVRAKSEIPVYDKSIENVLSAILTTNDFWKIVDLSEEPLPLVADIIRILEEEGLVKISNGIEFTEKGNEFIKSYGIGAKDNSVCECCEGRGVSLKNYQDLLERFKEIVKNRPMPKHEYDQGFVTPECTISRIALMNSRGDLFNKDVLVLGDDDLTSIALMLSNLPKKIVVVDIDDRLINFIKEVAEQLNYKNIEVITLDLRKPLPEKYSRAFDTFITDPPETVYAVKTFIGRGISALKGERRAGYFGITRRESSLDKWREIQRTLINDFNVVITDIIRNFNHYVNWGYEEETRAWKLAPVKKKPEDIWYKSYMFRIETLKDSRGFEEEVDVGDELYNDAESSTT | not soluble
12 | MERKKAVVLLSGGLDSSTVLAYAISLGYEVHAISFDYGQRHSREMNSSEELAKYYGVDRKIVHVDLRSIGKSALTDDIEVPSRDLESIPEEIPVTYVPARNTIFLSIAAAYAESIGSTDIFIGANAIDYSGYPDCRPEYFNAMEKALTLGTEIGLRKGMHINVPLQYLTKADIIRMGLKLGVPYEKTWSCYKGGEKACGECDSCLLRLKGFMEAGSEDPLEYEKYPTFYKDYIEKRKK | soluble
13 | MERLEEARKRLEEARRVAVLTGAGISKPSGIPTFRDAEGLWKNFNPLDYATPEAYARDPEKVWAWYAWRIQKVREAKPNPAHYALVELERRILSRGGSFLLVTQNVDGLHALAGSQNLVELHGNLLRARCEACGKRFPLPEAFAPPPFCPACGHRARPDVVWFGEFLPEGAWERAERAFAEADFALVVGTSAEVEPAASLGRIAFASGAYLVEVNPEPTPLTPLAHLSLRTGAVEGMALLLPPSPEDQAEGHLS | soluble
14 | MERNMKNKNKMLDLMLEAVNNIKDAMPKMQIGAPVRQNIDAGERPCLQGYYTAAELKPVLDRPPQDSNAPGASGKAFKTTNLSVEEQKEKERGEAKHCFNAFASDRISLHRDLGPDTRPPEYVEEYLLFILYHQALQGREG | not soluble
15 | MERSAIQIPAGRIDDAVAKVDGLVGELMQNTGIPGMAVAIVHGGKTLYAKGFGVRDVGKGGGPDNKVDADTVFQLASVSKSVGATVVAHAVTDNVVTWDTPVVSKLPWFALRDPYVTGQVTIADLYSHRSGLPDHAGDLLEDLGYDRRQVLQRLKYLPLAPFRISYAYTNFGVTAAAEAVAAAAGQSWEDLSDEVLYRPLGMGSTSSRFTDFLARPNHAVNHVKVADRWEARYQRDPDAQSPAGGVSSSLNDMTHWLAMVLADGVYNGRRITSPEALLLVYTPQVISRHPVSPRARASFYGYGFNVGVTSSGRTEYSHSGAFGLGAAANFVVLPSEDLAIIALTNAGPIGVPETLTAEFMDLVQYGQVREDWAALYKKAFAPLNELAGSLVGKQSPANPAPSRPLNDYVGVYANDYWGPATVTYHDGQLRLSLGPKNQTFDLTHWDGDTFTFTLSTENALPGSISKATFAGDTLNLEYYDADKLGTFTRLEHHHHHH | not soluble
16 | MESISRSPRIFLLSLGRWNSGISVCWYSPRHPRAIISDPAPRIAREHATVLFGDSHASEENNAARRRNFHNKKTSRGGNDDKQSRGNNAEKRKRRDPMTSQGPDSDEDELQEMTNKDRLKRAKRKGIDPMDPGAHGGAPVEKWSDGLRVDHVTGADVTAGGPLFQQRPYPAPGAILRKHKPQDEEDDQQFNFLKSF | not soluble
17 | MESTQKDIKLEPDEFNYIIAPGAPESENLAENPENPVDLSEIPLETKPAWFPSSKGRSIVWEHITWVAESQRAACNYCAAEFQVKGGTSALLRHLKTIHPAAINFDPENPPPVARRKRKKMEDYTIVTEDTKSYMDNLLEQFLNVDDSAPRGGLPDHDSPQHMLVVDPQSRADSEIDAVIRNLQQETEQNGLLEPEPDQALKKLLGIDDGRCEEVIAIAAPIQQDEEKQVSSSSGGAQTKKRRADEQKLTENPALNSGKFSLSILSAIRRPPLPSSTATSSSAAAPQIPAMTSSAVASATSAAAAATPMMPAKYNAQAVQILDFEAKVLYNQSLHSTIAREDAMTTYYRMKSRKLELEIKKLERELGEEQDEAQEHEE | not soluble
18 | MESVLNNEKAIVVFSGGQDSTTCLFYAKKHFKEVELVTFNYGQRHDTEIEVAKQIAQDQGMKHHVLDMSLLSQLTPNALTQHDMEITNNEDGIPNTFVPARNLLFLSFAGALAYQIGAKHIITGVCETDFSGYPDCRDSFIKSMNVTLSLAMDKDFVIHTPLMWLNKAETWKLSDELEVLDYIRTKTLTCYNGIIGDGCGECPACHLRQRGLNQYLESKGAL | not soluble
19 | METACERLHVAQETQMQLIEKSSDKLQDHILYWTAVRTENTLLYAARKKGVTVLGHCRVPHSVVCQERAKQAIEMQLSLQELSKTEFGDEPWSLLDTSWDRYMSEPKRCFKKGARVVEVEFDGNASNTNWYTVYSNLYMRTEDGWQLAKAGADGTGLYYCTMAGAGRIYYSAFGDEAARFSTTGHYSVRDQDRVYAGVSSTSSDFRDRP | soluble
20 | METAKEMTRESLPIKCLEAVILGIYLTNGQPSIERFPISFKTYFSGNYFHHVVLGIYCNGRYGSLGMSRRAELMDKPLTFRTLSDLIFDFEDSYKKYLHTVKKVKIGLYVPHEPHSFQPIEWKQLVLNVSKMLRADIRKELEKYARDMRMKGLCSH | soluble
21 | METAVEVRAPAAAAWELLTDTRRWSEWGPSVSGVECPERFIGPGTIGWVRTVVGLRLPFRITEFEPGRRWCWSVAGIPATGHRVEPLGQERCRVVFEVPMPAAPYLAVCRVAALRIRSILEGLEHHHHHH | not soluble
22 | METEDHAFRIEDIFPFLDPYVSKWFDINYRSLTEPQKYAIPFIHEGRNVLVSSPTGTGKTLTAFLSIINELFMLARSGKLEDKIYCVYISPLKALANDVNKNLRAPLEGIYKIADEDGINLPKIRVSVRSGDTSEGERQKMARKPPHILITTPESFSLTLSSPRMRENLRDVKYVIIDEIHEISSTKRGSLLSANMERLEALRPGILRIGLSATQSP | not soluble
23 | METIKISEQELINALCIYIAEKRQVGPEEVLVELMYDDDYGFSAEVEVNGRQQILIQANLIEALRLLLDREYNVNPFAARLQLELDDEEGIYALAKFNNSDD | not soluble
